Consider 7 molecules from US20240376214A1, “ANTI-C-MET ANTIBODIES AND ANTIBODY-DRUG CONJUGATES” (BYONDIS B.V., priority 2021, published 2024).

For one experiment, the target named is T1, c-Met (Homo sapiens, UniProt P08581, DEL964-1010).
T1 construct: endogenous in cells; host or cells: NCI-H596
As to the kind of experiment: Functionality of chimeric antibodies, stimulation of proliferation experiment in NCI-H596 cells. The class given is cell-based. From the text:
From this perspective, although all three wt/41C chimeric mAbs were humanized and studied in further experiments, wt/41C-chi-mAb3 is the most preferred chimeric anti-c-Met antibody to further develop into an ADC for treatment of a cancer indication.

Experiment [1] addresses T2, human c-Met (HGFR), full length, on the cell surface (human, UniProt P08581 25-1390). As to the kind of experiment: cell-based or functional assay.
For experiment [2], the target named is T2, human c-Met (HGFR), full length, on the …. As to the kind of experiment: cell binding on c-Met positive MKN45 cells, fluorescence readout RFU (R-PE), mean ± S.E.M. of two experiments in duplicate.
Experiment [3] concerns c-Met-positive tumor cell lines MKN45, NCI-H441 and PC-3. Kind of experiment: Internalization by flow cytometry (AF488 quenching). The class given is cell-based, human. The method, then: Internalization of mAb3b was studied in human c-Met-positive tumor cell lines MKN45, NCI-H441 and PC-3. Cells (100,000 cells/well of a 96-well round bottomed microtiter plate) were incubated for 30 minutes at 4° C. with 50 μL 10 μg/mL mAb3b or appropriate non-binding control antibody. After a wash step with ice-cold complete growth medium (CGM) consisting of RPMI (Lonza) supplemented with 10% heat inactivated (HI) fetal bovine serum (FBS) (Gibco) and 80 U/mL penicillin/streptomycin (Lonza), the cells were incubated for 30 minutes at 4° C. with 50 μL Alexa Fluor 488 (AF488)-labeled Fab Fragment goat anti-human IgG (1:600 dilution) (Jackson Immunoresearch). After a wash step with ice-cold CGM, cells were resuspended in 150 μL pre-warmed CGM and transferred to polypropylene tubes, one for each time point (0 h, 0.5 h, 1 h, 3 h, 24 h) and placed into a 37° C. water bath to initiate internalization. […] Identical unquenched tubes were determined for the total fluorescence at each time point. Fluorescence intensities were determined by flow cytometry (BD FACSVerse, Franklin Lakes, NJ) and indicated as the Median Fluorescence Intensity (MFI). Internalization was quantified by calculating the percentage of internalization with the formula described. […]
(In general: Flow cytometry measures light scatter and fluorescence of single cells or particles in a stream.)

Positions count from the first letter of the chain named. Names may count otherwise. Where only a bound is given, the exact number is not on record here.

B1: wt-chi-mAb3: wild-type chimeric anti-c-Met IgG1 antibody, VH SEQ ID NO:5, VL SEQ ID NO:6 (antibody, V domains shown)
VH: QIQLQQSGPELVKPGASVKISCKASGYTFTDYYLNWVKQRPGQGLEWIGLIFPGNDKTEYSEKFKGKATLTVDTSSSTAYIQLSRLSSEDSAIYFCSGGDYGGFVYWGQGTLVTVSS
VL: DIQMTQSPTSLSASVGETVTITCGASENIYGALNWYQRKQGKSPQLLIYGATNLADGMSSRFSGSGSGRQFSLKINSLHPDDVATYFCQNVLSSPLTFGSGTKLEIK
modifications: human IgG1 constant regions; HCVR; LCVR
As to B1, the Functionality entry with c-Met was “Neutral”.

B2: 41C-chi-mAb3: HC-41C chimeric anti-c-Met IgG1 antibody, VH SEQ ID NO:9, VL SEQ ID NO:6 (antibody, V domains shown)
VH: B1 VH with P41C
VL: B1 VL
modifications: IgG1 constant regions; HCVR - VH P41C; LCVR
As for B2, in the experiment with c-Met, the Functionality result was “Neutral”.

B3: ADC3b (antibody, human IgG1, kappa, V domains shown)
VH: QVQLVQSGAEVKKPGASVKVSCKASGYTFTDYYLNWVRQACGQGLEWMGLIFPGNDKTEYSEKFKGRVTLTTDTSISTAYMELSSLTSDDTALYYCSGGDYGGFVYWGQGTLVTVSS
VL: DIQMTQSPSSLSASVGDRVTISCGASENIYGALNWYQQQPGKAPKVLIFGATNLADGVPSRFSGSGSGTDFTLTISSLQPEDFATYYCQNVLSSPLTFGQGTKLEIKR
modifications: vc-seco-DUBA linker-drug on the engineered cysteine at HC position 41 (Kabat); DAR 1.9
notes: Antibody-drug conjugate of mAb3b; also called mAb3b-vc-seco-DUBA
For B3, in experiment [1], the “Efficacy (%), in vitro cytotoxicity, MKN-45, -HGF” value came to 84%; the “Efficacy (%), in vitro cytotoxicity, NCI-H596, +HGF” value was 44%; the “Efficacy (%), in vitro cytotoxicity, NCI-H596, -HGF” value worked out at 10%; the “Efficacy (%), in vitro cytotoxicity, PC-3, +HGF” value was 75%. In experiment [1], the “Efficacy (%), in vitro cytotoxicity, PC-3, -HGF” value was found to be 75%; the “IC50 1, in vitro cytotoxicity, PC-3, -HGF” value amounted to 0.05 nM; the “IC50, in vitro cytotoxicity, MKN-45, -HGF” value turned out to be 0.38 nM; the “IC50, in vitro cytotoxicity, NCI-H596, +HGF” value stood at 1.47 nM. Also, in experiment [1], the “IC50, in vitro cytotoxicity, NCI-H596, -HGF” value was over 10 nM and the “IC50, in vitro cytotoxicity, PC-3, +HGF” value was about 1.01 nM. For the same molecule, the half-maximal effective concentration (EC50 (read off the curve)) in experiment [2] was about 0.04 µg/mL.

B4: mAb3b: HC-41C humanized anti-c-Met antibody, VH SEQ ID NO:16, VL SEQ ID NO:20 (antibody, V domains shown)
VH: B3 VH
VL: DIQMTQSPSSLSASVGDRVTISCGASENIYGALNWYQQQPGKAPKVLIFGATNLADGVPSRFSGSGSGTDFTLTISSLQPEDFATYYCQNVLSSPLTFGQGTKLEIK
modifications: humanized HCVR; humanized LCVR
For the molecule B4, in experiment [3] (10 μg/mL, each of MKN45, NCI-H441, PC-3), the Internalization result was “Efficient internalization”. Besides, in experiment [3] (each of the cell lines), the “time of maximum internalization” value worked out at 24 h.

B5: wt-chi-mAb2: wild-type chimeric anti-c-Met IgG1 antibody, VH SEQ ID NO:3, VL SEQ ID NO:4 (antibody, V domains shown)
VH: QVQLQQSGAELVRPGASVKLSCKASGYVFPDYEMHWVKQTPVHGLEWIGAFDPETGDTTYNQNFKGKATLTADKASSTAYMDLRSLTSGDSAVYYCARDYKYLYYYAMDNWGQGTSVTVSS
VL: QIVLTQSPAIMSASLGERVTMTCTASSSITSSYLHWYQQKPGSSPKLWIYSTTNLASGVPGRFSGSGSGTSFSLTISSMEAEDAATYYCHQYRRSPLTFGAGTKLELK
modifications: human IgG1 constant regions; HCVR; LCVR
For B5, the Functionality entry with c-Met is listed as “Partial agonist”.

B6: wt-chi-mAb1: wild-type chimeric anti-c-Met IgG1 antibody, VH SEQ ID NO:1, VL SEQ ID NO:2 (antibody, V domains shown)
VH: EVQLQQSGPELLKPGASVKMSCKASGYIFTDYFMNWVKQSHGKSLEWIGRVNPKNGDITYNQKFRGKATLTVDKSLTTAYMQLNSLTSEDSAVYFCAYDGYYDGMDFWGQGTSVTVSS
VL: ENVLTQSPAIMSASPGEKVTMTCRANSSVSSNFLHWYQQKSGASPKLWISSTSNLAFGVPPRFSGSGSGTSYSLTISSVEAEDAATYYCHQYSGHPFTFGSGTKLEIK
modifications: human IgG1 constant regions; HCVR; LCVR
As to B6, the Functionality entry in the experiment with c-Met was “Partial agonist”.

B7: 41C-chi-mAb1: HC-41C chimeric anti-c-Met IgG1 antibody, VH SEQ ID NO:7, VL SEQ ID NO:2 (antibody, V domains shown)
VH: B6 VH with H41C
VL: B6 VL
modifications: IgG1 constant regions; HCVR - VH H41C; LCVR
As to B7, the Functionality result with c-Met is listed as “Partial agonist”.

Usually EC50 (read off the curve) stands for the concentration needed to bring the measured effect to its halfway point. Low readings indicate higher potency in that assay, high ones lower potency in that assay.
